Broadly, the Kd is the equilibrium constant for the complex coming apart.

For one substance, Kd results are on record in paper PMC7311308.

For the test, the target named is CD46-D4.

As for Ad26 knob (domain or fragment), the dissociation constant Kd was 120 nM.
